The values that follow come from patent US20230330222A1 (ASCENDO BIOTECHNOLOGY, published 2023).

B1: recombinant TREML1 ECD (human TREM-like transcript-1 extracellular domain) (ligand)
chain: QGIVGSLPEVLQAPVGSSILVQCHYRLQDVKAQKVWCRFLPEGCQPLVSSAVDRRAPAGRRTFLTDLGGGLLQVEMVTLQEEDAGEYGCMVDGARGPQILHRVSLNILPPEEEEETHKIGSLAENAFSDPAGSANPLEPSQDEKSIP
notes: Expressed in E. coli from pET30-TREML1 and purified on Ni-NTA; also called hTREML1; not shown: N-terminal polyhistidine tag from pET30
B2: recombinant human MD2 protein (receptor, UniProt Q9Y6Y9 19-160, looked up)
chain: QKQYWVCNSSDASISYTYCDKMQYPISINVNPCIELKRSKGLLHIFYIPRRDLKQLYFNLYITVNTMNLPKRKEVICRGSDDDYSFCRALKGETVNTTISFSFKGIKFSKGKYKCVVEAISGSPEEMLFCLEFVILHQPNSN
notes: also called hMD2; LY96

For assay [1], the target named is T1, recombinant CD14 (human, UniProt P08571 20-352, limits assumed).
T1 construct: also called hCD14
T1 sequence (looked up): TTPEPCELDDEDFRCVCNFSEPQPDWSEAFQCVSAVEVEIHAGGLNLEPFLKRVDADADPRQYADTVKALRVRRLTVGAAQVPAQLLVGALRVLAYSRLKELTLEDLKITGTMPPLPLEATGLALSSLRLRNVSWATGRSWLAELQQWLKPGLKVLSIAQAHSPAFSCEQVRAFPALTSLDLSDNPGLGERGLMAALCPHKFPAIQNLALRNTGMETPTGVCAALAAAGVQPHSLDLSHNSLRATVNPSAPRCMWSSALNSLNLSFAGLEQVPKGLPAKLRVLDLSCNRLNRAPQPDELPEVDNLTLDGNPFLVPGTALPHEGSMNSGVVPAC
Kind of assay: solid phase binding assay, CD14 coated at 5 ug/ml. The protocol:
(§1) To identify potential binding partners of TREML1 ECD, we used solid phase binding assay to assess interactions between TREML1 ECD and candidate proteins. Briefly, various candidate proteins and BSA (as a negative control) were coated on a 96-well plate and TREML1 ECD at various concentrations were added to the wells. After binding and washing, an anti-TREML1 antibody conjugated with horse radish peroxidase (HRP) was added to each well. After washing, HRP substrate, TMB (3,3′,5,5′-tetramethylbenzidine), was added. After reaction, absorbance at 450 nm was measured to assess TREML1 binding. An exemplary set of results is shown in FIG. 2, in which recombinant TREML1 ECD binds MD2 and TLR4 in a concentration-dependent manner.
(§2) To investigate the protein-protein interactions. Recombinant TLR4 (5 ug/ml in PBS), MD2 (5 ug/ml in PBS), CD14 (5 ug/ml in PBS), and BSA (negative control) proteins were plated separately on 96-well plates and incubated overnight at 4 degrees Celsius. The blocking buffer (2% BSA in PBS) was added to avoid the nonspecific binding for 2 hr at room temperature. A serial diluted TREML1 ECD (2.5 ug/ml to 156 ng/ml, 2-fold dilutions) solutions were added and allowed to incubate at room temperature for 2 hr. Then, anti-TREML1 antibody (1 ug/ml in PBS) was added for 1 hr. […] Absorbance at OD450/540 nm was measured with a microplate reader.

For a further assay, the target named is BSA (negative control) (UniProt P02769 25-607). Kind of assay: solid phase binding assay, BSA coated as negative control. The protocol: as §1, §2
Assay [2] deals with T2, recombinant mouse MD2 protein (mouse, UniProt Q9JHF9 19-160).
T2 construct: also called mMD2
T2 sequence (looked up): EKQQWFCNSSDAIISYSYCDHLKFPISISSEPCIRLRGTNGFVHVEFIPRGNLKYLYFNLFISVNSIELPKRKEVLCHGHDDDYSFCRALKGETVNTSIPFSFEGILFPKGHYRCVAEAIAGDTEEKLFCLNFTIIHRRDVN
Kind of assay: solid phase binding assay, mTREML1 stalk coated, anti-His-HRP detection. The protocol: (§3) For TREML1 or mTREML1 stalk binding to human or mouse MD2 protein, TREML1 stalk or mTREML1 stalk (5 ug/ml in PBS) was coated separately on a 96-well plate. Recombinant hTLR4, hMD2, hCD14, or mMD2 was each serially diluted and added to the plates. Anti-His tag antibody-HRP was used as a detection antibody to detect the protein binding.

The target in assay [3] is B1. Kind of assay: solid phase binding assay, MD2 coated. The procedure: as §1, §2
In assay [4] the target is B2. Kind of assay: solid phase binding assay, TREML1 stalk coated, anti-His-HRP detection. The procedure:
as §3

For assay [5], the target named is T3, recombinant TLR4 (toll-like receptor 4) (human, UniProt O00206 24-631, limits assumed).
T3 construct: also called hTLR4
Kind of assay: solid phase binding assay, TREML1 stalk coated at 5 ug/ml, anti-His-HRP detection. The protocol:
as §3

Assay [6] has as its target T1, recombinant CD14. Described as above. The protocol: as §3

T3 sequence (O00206 24-631 limits assumed): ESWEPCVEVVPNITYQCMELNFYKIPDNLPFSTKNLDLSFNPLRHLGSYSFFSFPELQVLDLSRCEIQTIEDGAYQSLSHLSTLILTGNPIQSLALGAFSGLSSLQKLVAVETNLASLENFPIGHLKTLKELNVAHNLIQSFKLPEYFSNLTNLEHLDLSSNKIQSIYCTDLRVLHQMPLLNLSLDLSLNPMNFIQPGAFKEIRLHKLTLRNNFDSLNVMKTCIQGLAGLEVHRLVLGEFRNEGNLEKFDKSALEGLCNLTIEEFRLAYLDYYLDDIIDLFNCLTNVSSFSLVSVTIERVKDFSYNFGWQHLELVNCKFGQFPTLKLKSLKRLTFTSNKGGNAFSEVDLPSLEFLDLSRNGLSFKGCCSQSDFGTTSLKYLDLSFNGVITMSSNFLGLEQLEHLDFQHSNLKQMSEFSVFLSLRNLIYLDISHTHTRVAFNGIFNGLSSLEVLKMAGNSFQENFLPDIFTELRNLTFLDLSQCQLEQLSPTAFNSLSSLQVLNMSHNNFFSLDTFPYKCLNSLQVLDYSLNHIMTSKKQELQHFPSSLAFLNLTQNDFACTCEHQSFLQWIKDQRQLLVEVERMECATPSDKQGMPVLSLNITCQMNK
Sequence of BSA (negative control) (P02769 25-607 limits assumed): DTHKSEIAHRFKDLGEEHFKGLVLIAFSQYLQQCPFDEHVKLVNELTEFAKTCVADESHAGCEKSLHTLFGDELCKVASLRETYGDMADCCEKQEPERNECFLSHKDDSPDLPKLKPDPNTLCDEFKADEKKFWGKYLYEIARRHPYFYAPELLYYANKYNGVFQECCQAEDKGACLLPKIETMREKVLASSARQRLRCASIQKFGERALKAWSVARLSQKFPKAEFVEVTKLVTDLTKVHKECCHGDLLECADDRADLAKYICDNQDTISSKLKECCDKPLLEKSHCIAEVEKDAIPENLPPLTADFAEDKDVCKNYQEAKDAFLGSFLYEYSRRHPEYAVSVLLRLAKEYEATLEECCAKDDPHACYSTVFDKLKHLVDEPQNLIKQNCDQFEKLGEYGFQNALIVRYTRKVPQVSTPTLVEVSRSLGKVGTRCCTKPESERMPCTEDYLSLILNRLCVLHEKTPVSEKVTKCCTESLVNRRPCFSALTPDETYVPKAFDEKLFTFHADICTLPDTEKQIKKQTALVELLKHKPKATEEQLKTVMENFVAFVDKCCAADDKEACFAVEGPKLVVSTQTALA

Turning to B1, the binding result with recombinant CD14 [1] and with BSA (negative control) was “no binding (tested: 2.5 ug/ml to 156 ng/ml TREML1 ECD)” throughout. Consider EGEEAEDEKETYRIGTGSLLEDPSLDPSASAGPHEFRRRENSIP (also called mouse TREML1 stalk) [mTREML1 stalk polypeptide (mouse)], for which the binding result in assay [2] is “binds”. As to B2, the binding result in assay [3] was “binds”. For the molecule ILPPEEEEETHKIGSLAENAFSDPAGSANPLEPSQDEKSIP [TREML1 stalk polypeptide (human)], the binding result in assay [4] is on record as “binds”; in assay [5], “no binding”; with recombinant CD14 [6], “no binding”.
